# According to patent publication US10358638B2, “Method of producing 1,5-pentadiamine using lysine decarboxylase mutant having improved thermal stability” (AJINOMOTO CO., INC., priority 2014, dated 2019):
# Key:
# [1] = Inhibition of enzyme activity by iron ion and effect of chelating agent EDTA; format: biochemical, Escherichia coli
# Description: (§1) The activity of the lysine decarboxylase was measured according to the method described in JP patent application laid-open Publication No. 2008-193899. 0.1 mL of a microbial cell suspension or a treated product thereof was added to 1 mL of a reaction solution containing 100 mM MES-NaOH buffer (pH 6.0), 10 g/L (55 mM) of L-lysine hydrochloride and 26.5 mg/L (0.1 mM) of PLP, and then the reaction mixture was incubated at 37° C. for 5 minutes. 0.1 mL of the reaction solution was collected and added to 1 mL of 1% (v/v) phosphoric acid to stop the reaction. Lysine and 1,5-PD were quantified with HPLC by a post column OPA method (S. R. Vale and M. B. Gloria, Journal Of AOAC International (1997) vol. 80, p. 1006-1012) or a method of quantifying remaining L-lysine using a biosensor BF-5 (Oji Scientific Instruments Co., Ltd.). One unit was defined as an activity that formed 1 μmol of 1,5-PD in one minute under this condition.
# Cell free extracts were prepared from the strain expressing wild-type CadA and the strain overexpressing double mutant CadA, respectively in the same manner as in Examples 2 and 3. Using the resulting cell free extract, iron sulfate heptahydrate (Nacalai Tesque Inc.) at a final concentration of […] (2 mM) was added to the composition shown in Example 1, and an inhibitory effect was measured. […]
# [2] = Enzyme activity of culture media of expressing strains after heat treatment with or without disruption; format: cell-based, Escherichia coli
# Description: as §1
# Microbial cells of E. coli JM109/pCadA220 and E. coli JM109/pCadA234 carrying the wild-type CadA and the double mutant CadA, respectively were cultured in the LB medium. Subsequently, 15 mL of the cultured medium was inoculated into 300 mL of culture medium (25 g/L of glucose, 5 g/L of ammonium sulfate, 2 g/L of potassium phosphate, 1 g/L of magnesium sulfate heptahydrate, 20 mg/L of iron sulfate heptahydrate, 20 mg/L of manganese sulfate pentahydrate, 1 mg/L of thiamine hydrochloride, 0.45 g/L of hydrolyzed soybeans, pH 7.0) in a 500 mL jar fermenter (manufactured by ABLE & Biott Co., Ltd.), and cultured with ventilation at 300 mL/minute while stirring at 250 rpm at 30° C. for 12 hours. Culture media containing 10.1 g/L and 10.9 g/L of microbial cells in terms of dry microbial cell weight were able to be prepared for E. coli JM109/pCadA220 and E. coli JM109/pCadA234, respectively. For the purpose of improving substrate permeability, the pH value was adjusted to 5.5, and subsequently the culture media were incubated at 55° C. and 60° C., and then the culture media were directly used to measure the activity after the incubation.
# Since the lysine decarboxylase is expressed within the microbial cell, when the microbial cell is used directly, lysine cannot react with the lysine decarboxylase, and the efficiency of a decarboxylation reaction is very poor. […] However, the wild-type enzyme was inactivated during the incubation when heated excessively. The mutated enzyme having the improved thermal stability could stably keep its activity even when using conditions where the wild-type enzyme was easily inactivated as shown in Example 2. When the microbial cells carrying such a mutated enzyme were used, efficient treatment in a short period of time was possible. This has shown that the mutated enzyme not only can act at higher temperature upon reaction but also can be easily used when the microbial cell is directly used.
# [3] = Remaining lysine decarboxylase activity of cell free extract after incubation at 68° C.; format: biochemical, Escherichia coli
# Description: as §1
# A combination mutant for increasing the amount of expressed CadA was constructed using QuikChange™ Site-Directed Mutagenesis Kit (Stratagene). A mutation to alter from Val (GTT) to Ile ([…]) at position 3 was introduced using the plasmid pCadA233 as the template and using oligonucleotides v3i_r (5′-cat gtg att caa tat tgc aat aat gtt cat cta cat tcc tcc tta cg-3′(SEQ ID NO:11)) and v3i_f (5′-cgt aag gag gaa tgt aga tga aca tta ttg caa tat tga atc aca tg-3′ (SEQ ID NO:12)) as primers according to a protocol. The nucleotide sequence of the constructed plasmid was determined by the method described in Example 2 to confirm that the objective mutation had been introduced, and this plasmid was designated as pCadA234. Microbial cells of E. coli JM109/pCadA234 expressing this double mutant CadA234 at high level were cultured to prepare a cell free extract in the same manner as in Example 2. The activity in this cell free extract was 663 U/mL, which was almost the same as that from the strain expressing the wild-type enzyme.
# The resulting cell free extract was diluted to 20 fold with 0.1 M MES-NaOH buffer (pH 6.0). Each crude enzyme solution was incubated at 68° C., which is a higher temperature than in Example 2, and the remaining activity was measured over time. After incubation at 68° C. for one hour, the wild-type enzyme was inactivated to 27% while the single mutant enzymes V3I and A590T were inactivated to 47% and 27%, respectively. On the contrary, the double mutant enzyme retained 70% of its activity, and even after 3 hours, still retained about 60% of its activity (FIG. 1). Therefore, it was shown that the double mutation has a synergistic effect and further improved the thermal stability.
# [4] = Lysine decarboxylation reaction (1,5-PD production) in the presence of chelating agent; parameters: species or system Escherichia coli; details: 0.1 mM iron sulfate, 0.3 mM EDTA added, 37° C., 16 hours
# Description: In the same manner as in Example 4, microbial cells of E. coli JM109/pCadA234 (double mutant expressing CadA at high level) were cultured, the cultured medium was prepared, and after completing the cultivation, incubated at 60° C. for one hour. The activity after incubation was measured, and the cultured medium was diluted so that the enzyme activity became 380 units/mL. 30 mL of this cultured medium containing the enzyme was added to 270 mL of a reaction solution containing 250 g/L of lysine hydrochloride (Ajinomoto Co., Ltd.), 26.5 mg/L of pyridoxal phosphate, 27.8 mg/L (0.1 mM) of iron sulfate heptahydrate and 111.6 mg/L (0.3 mM) of disodium dihydrogen ethylenediaminetetraacetate (EDTA), and the mixture was reacted at 37° C. for 16 hours. No EDTA was added in a control reaction. The pH value was 5.3 when the reaction was started, and elevated with progress of the reaction, but was kept at 7.0 by adding 30% (v/v) sulfuric acid when the pH value reached 7.0.
# On the other hand, when EDTA was added, the inhibition of the reaction is restored and lysine was completely consumed. When EDTA was added, 135 g/L of 1,5-PD was formed and lysine was converted at a yield of 98%. […]
# [5] = Incubation at 55° C. for 1 h, Disruption
# [6] = Incubation at 55° C. for 1 h, physical treatment None
# [7] = Incubation at 55° C. for 3 h, Disruption
# [8] = Incubation at 55° C. for 3 h, physical treatment None
# [9] = Incubation at 60° C. for 1 h, Disruption
# [10] = Incubation at 60° C. for 1 h, physical treatment None
# [11] = No heat treatment, physical treatment None
molecule,measurement,setting,value
"pCadA234: lysine decarboxylase (CadA) V3I/A590T double mutant (protein, UniProt P0A9H3 1-715, looked up, variant V3I A590T) Inducible lysine decarboxylase: MNIIAILNHMGVYFKEEPIRELHRALERLNFQIVYPNDRDDLLKLIENNARLCGVIFDWDKYNLELCEEISKMNENLPLYAFANTYSTLDVSLNDLRLQISFFEYALGAAEDIANKIKQTTDEYINTILPPLTKALFKYVREGKYTFCTPGHMGGTAFQKSPVGSLFYDFFGPNTMKSDISISVSELGSLLDHSGPHKEAEQYIARVFNADRSYMVTNGTSTANKIVGMYSAPAGSTILIDRNCHKSLTHLMMMSDVTPIYFRPTRNAYGILGGIPQSEFQHATIAKRVKETPNATWPVHAVITNSTYDGLLYNTDFIKKTLDVKSIHFDSAWVPYTNFSPIYEGKCGMSGGRVEGKVIYETQSTHKLLAAFSQASMIHVKGDVNEETFNEAYMMHTTTSPHYGIVASTETAAAMMKGNAGKRLINGSIERAIKFRKEIKRLRTESDGWFFDVWQPDHIDTTECWPLRSDSTWHGFKNIDNEHMYLDPIKVTLLTPGMEKDGTMSDFGIPASIVAKYLDEHGIVVEKTGPYNLLFLFSIGIDKTKALSLLRALTDFKRAFDLNLRVKNMLPSLYREDPEFYENMRIQELTQNIHKLIVHHNLPDLMYRAFEVLPTMVMTPYAAFQKELHGMTEEVYLDEMVGRINANMILPYPPGVPLVMPGEMITEESRPVLEFLQMLCEIGAHYPGFETDIHGAYRQADGRYTVKVLKEESKK","activity with 2 mM iron ion, of the activity when no iron ion was added","[1]; 2 mM iron ion, no EDTA",64.7%
same,Enzyme activity,"[1]; FeSO4 2 mM, EDTA 0.5 mM",677 units/ml
same,Enzyme activity,"[1]; FeSO4 2 mM, EDTA 1 mM",680 units/ml
same,Enzyme activity,"[1]; FeSO4 2 mM, EDTA 2 mM",677 units/ml
same,Enzyme activity,"[1]; FeSO4 2 mM, EDTA 4 mM",672 units/ml
same,Enzyme activity,"[1]; FeSO4 2 mM, EDTA 5 mM",669 units/ml
same,Enzyme activity,"[1]; FeSO4 2 mM, EDTA None",443 units/ml
same,Enzyme activity,"[1]; FeSO4 None, EDTA 2 mM",677 units/ml
same,Enzyme activity,"[1]; FeSO4 None, EDTA None",685 units/ml
same,Enzyme activity,[2]; [5],758 units/ml
same,Relative activity,[2]; [5],98.4%
same,Enzyme activity,[2]; [6],475 units/ml
same,Relative activity,[2]; [6],61.7%
same,Enzyme activity,[2]; [7],659 units/ml
same,Relative activity,[2]; [7],85.5%
same,Enzyme activity,[2]; [8],601 units/ml
same,Relative activity,[2]; [8],78.0%
same,Enzyme activity,[2]; [9],754 units/ml
same,Relative activity,[2]; [9],97.9%
same,Enzyme activity,[2]; [10],426 units/ml
same,Relative activity,[2]; [10],55.3%
same,Enzyme activity,"[2]; No heat treatment, Disruption",770 units/ml
same,Relative activity,"[2]; No heat treatment, Disruption",100%
same,Enzyme activity,[2]; [11],16.0 units/ml
same,Relative activity,[2]; [11],2.1%
same,remaining activity after incubation at 68° C. for one hour,"[3]; 68° C., 1 hour, FIG. 1",70%
same,remaining activity after incubation at 68° C. for 3 hours,"[3]; 68° C., 3 hours, FIG. 1",about 60%
same,activity in cell free extract,[3]; before incubation,663 U/mL
same,yield of lysine conversion,[4],98%
